Measurements published in patent publication US20260116987A1 (Gilead, published 2026).

Experiments:
[1] = target: T1, CCR8-NT.MBP (CCR8 N-terminus peptide aa 1-35 fused with maltose binding protein); experiment: ForteBio Octet, antibody captured on AHC biosensors, CCR8-NT.MBP as analyte
[2] = target: T1, CCR8-NT.MBP (CCR8 N-terminus peptide aa …); experiment: ForteBio Octet, antibody captured on AHC biosensors
[3] = target: T2, Human CCR8 (C-C chemokine receptor type 8) expressed on CHO-S cells (human, UniProt P51685 1-355); experiment: flow cytometry on CHO cells expressing CCR8, EC50 column
T2 construct: also called huCCR8; human CCR8-expressing CHO-S cells
Experimental: (§1) CCR8 binding was determined using flow cytometry according to the same methods used in Example 4, Briefly, antibodies were screened for specific binding to human CCR8 by flow cytometry using human CCR8-overexpressing and parental CHO—S cell line. Antibodies specifically binding to human CCR8 were also tested for binding to CCR4 by flow cytometry.

[4] = target: T2, Human CCR8 (C-C chemokine receptor type …); experiment: flow cytometry (PE-A), human CCR8-expressing CHO-S cells against parental CHO-S cells; antibody concentration not given
[5] = target: T3, Human CCR4 expressed on CHO-S cells (human, UniProt P51679 1-360); experiment: flow cytometry (PE-A), human CCR4-expressing CHO-S cells against parental CHO-S cells; antibody concentration not given
T3 construct: whole, on cells; also called CCR4-expressing CHO-S cells
T3 sequence (looked up): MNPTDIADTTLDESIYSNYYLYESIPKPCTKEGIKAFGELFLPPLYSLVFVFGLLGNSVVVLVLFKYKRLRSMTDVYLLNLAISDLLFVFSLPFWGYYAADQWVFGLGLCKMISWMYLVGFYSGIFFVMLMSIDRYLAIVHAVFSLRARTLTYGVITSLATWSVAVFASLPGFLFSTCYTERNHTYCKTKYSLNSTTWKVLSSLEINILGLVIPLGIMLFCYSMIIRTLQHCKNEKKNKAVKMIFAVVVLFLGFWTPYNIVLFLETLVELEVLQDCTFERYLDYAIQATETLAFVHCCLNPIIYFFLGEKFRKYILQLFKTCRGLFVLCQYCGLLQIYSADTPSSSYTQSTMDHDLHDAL

[6] = target: T4, Human CCR8 on human CCR8-overexpression lipoparticles (human, UniProt P51685 1-355); experiment: sequential format ELISA on human CCR8-overexpression lipoparticles; competitor 19-O07
[7] = target: T3, Human CCR4 expressed on CHO-S cells; experiment: flow cytometry
[8] = target: T2, Human CCR8 (C-C chemokine receptor type …); experiment: flow cytometry epitope binning, tandem format, human CCR8-overexpressing cells; competitor 19-O07
Experimental: (§2) A subset of antibodies against human CCR8 were epitope binned using flow cytometry method in tandem format. Briefly, one set of antibodies was biotinylated. Human CCR8-overexpressing cells were incubated at 4° C., with the non-biotinylated antibodies at 10 μg/mL for 1 hour, then without washing the biotinylated antibodies were added at 10 μg/mL. After a further 1-hour incubation, cells were washed three times and then stained with streptavidin-phycoerythrin (PE-strep) secondary antibody for 30 minutes. Binding competition was determined by detecting PE by flow cytometry. The response values were normalized as the % of the maximum binding of the individual antibody.

[9] = target: T2, Human CCR8 (C-C chemokine receptor type …); experiment: flow cytometry epitope binning, tandem format, human CCR8-overexpressing cells; competitor 1-K16
Experimental: as §2

[10] = target: T2, Human CCR8 (C-C chemokine receptor type …); experiment: flow cytometry epitope binning, tandem format, human CCR8-overexpressing cells; competitor 1-K17
Experimental: as §2

[11] = target: T4, Human CCR8 on human CCR8-overexpression …; experiment: sequential format ELISA on human CCR8-overexpression lipoparticles; competitor 7-B16
[12] = target: T2, Human CCR8 (C-C chemokine receptor type …); experiment: KinExA, on-cell, human CCR8-expressing CHO-S cells; calculated from Kd and kon
Experimental: (§3) Samples were gently rocked for 2.5 hours at 37° C. to achieve equilibrium.
(§4) To determine the rate of association (kₒₙ), the same immobilized biotinylated goat anti-human IgG-PMMA column was used as the capture reagent for kinetic experiments.
(§5) Data analysis was performed using KinExA Pro software at Sapidyne Instruments Inc to generate Kd and kₒₙ, The rate of dissociation (koff) was calculated based on the equation below.

[13] = target: T2, Human CCR8 (C-C chemokine receptor type …); experiment: flow cytometry epitope binning, tandem format, human CCR8-overexpressing cells; competitor 6-B09
Experimental: as §2

[14] = target: T4, Human CCR8 on human CCR8-overexpression …; experiment: sequential format ELISA on human CCR8-overexpression lipoparticles; competitor 6-B09
[15] = target: T2, Human CCR8 (C-C chemokine receptor type …); experiment: KinExA, on-cell, human CCR8-expressing CHO-S cells
Experimental: as §3, §4, §5

[16] = target: T2, Human CCR8 (C-C chemokine receptor type …); experiment: cell-based or functional assay
[17] = target: T4, Human CCR8 on human CCR8-overexpression …; experiment: sequential format ELISA on human CCR8-overexpression lipoparticles; competitor 1-K17
[18] = target: T2, Human CCR8 (C-C chemokine receptor type …); experiment: flow cytometry epitope binning, tandem format, human CCR8-overexpressing cells; competitor 7-B16
Experimental: as §2

[19] = target: T2, Human CCR8 (C-C chemokine receptor type …); experiment: cell-based or functional assay; remark: listed apart in the source
[20] = target: T4, Human CCR8 on human CCR8-overexpression …; experiment: sequential format ELISA on human CCR8-overexpression lipoparticles; competitor 1-K16
[21] = target: T2, Human CCR8 (C-C chemokine receptor type …); experiment: flow cytometry, human CCR8-overexpressing against parental CHO-S cells
Experimental: The first category of variant (single substitution mutation in the CDR H3) included variants in which each amino acid residue of the heavy chain CDR 3 (i.e., , CDR H3) was iteratively substituted with an alanine residue.
as §1

[22] = target: T2, Human CCR8 (C-C chemokine receptor type …); experiment: cell-based or functional assay; remark: listed apart in the source

T4 sequence (P51685 whole entry): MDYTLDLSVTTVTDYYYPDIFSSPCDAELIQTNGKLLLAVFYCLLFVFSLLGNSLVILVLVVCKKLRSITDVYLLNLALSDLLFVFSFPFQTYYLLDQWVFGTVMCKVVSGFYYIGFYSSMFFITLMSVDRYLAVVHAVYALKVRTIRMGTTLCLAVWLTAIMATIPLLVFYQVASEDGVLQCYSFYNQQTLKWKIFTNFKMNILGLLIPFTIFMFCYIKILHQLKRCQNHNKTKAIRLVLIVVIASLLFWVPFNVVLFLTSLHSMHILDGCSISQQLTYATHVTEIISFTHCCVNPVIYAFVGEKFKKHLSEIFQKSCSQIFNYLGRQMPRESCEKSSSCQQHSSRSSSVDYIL
T2 sequence (P51685 whole entry): as above

| Binder | Octet Response (nm) [1] | binding result [2] | binding result [3] | ELISA epitope binning signal [6] | binding result [7] | % of the maximum binding [8] | % of the maximum binding [9] | % of the maximum binding [10] | ELISA epitope binning signal [11] | koff [12] | % of the maximum binding [13] | ELISA epitope binning signal [14] | Kd [15] | kon [15] | EC50 of ADCC function (Promega ADCC reporter bioassay) [16] | ELISA epitope binning signal [17] | % of the maximum binding [18] | ELISA epitope binning signal [20] | IC50, antagonist activity in DiscoverX PathHunter beta-arrestin assay with 13.7 nM human CCL1 [22] | also measured |
| --- | --- | --- | --- | --- | --- | --- | --- | --- | --- | --- | --- | --- | --- | --- | --- | --- | --- | --- | --- | --- |
| 7B16-H3.001 (CDR H3 swapped mutant of 7-B16) (antibody, V domains shown, also called CDR swapped variant H3) VH: EVQLVESGGGLVQPKGSLKLSCAASGFTFNTYAMNWVRQAPGKGLEWVARIRSKSNNYATYYADSVKDRFTISRDDSQSMLYLQMNNLKTEDTAMYYCTRYYYYYGMDVWGAGTTVTVSS VL: DIVMTQAEPSVPVTPGESISISCRSSKSLLHSNGNTYLYWFLQRPGQSPQLLIYRMSNLASGVPDRFSGSGSGTAFTLRISRVEAEDVGVYYCMQHLEYPFTFGGGTKLEIKR | 0.0093 nm | no binding (tested: 300 nM CCR8-NT.MBP) | no binding |  |  |  |  |  |  |  |  |  |  |  |  |  |  |  |  |  |
| 7-B16 (mouse hybridoma antibody) (antibody, mouse IgG1, kappa) heavy: EVQLVESGGGLVQPKGSLKLSCAASGFTFNTYAMNWVRQAPGKGLEWVARIRSKSNNYATYYADSVKDRFTISRDDSQSMLYLQMNNLKTEDTAMYYCVRGLLRYRFFDVWGAGTTVTVSSAKTTPPSVYPLAPGSAAQTNSMVTLGCLVKGYFPEPVTVTWNSGSLSSGVHTFPAVLESDLYTLSSSVTVPSSPRPSETVTCNVAHPASSTKVDKKIVPRDCGCKPCICTVPEVSSVFIFPPKPKDVLTITLTPKVTCVVVDISKDDPEVQFSWFVDDVEVHTAQTQPREEQFNSTFRSVSELPIMHQDWLNGKEFKCRVNSAAFPAPIEKTISKTKGRPKAPQVYTIPPPKEQMAKDKVSLTCMITDFFPEDITVEWQWNGQPAENYKNTQPIMNTNGSYFVYSKLNVQKSNWEAGNTFTCSVLHEGLHNHHTEKSLSHSPG light: DIVMTQAEPSVPVTPGESISISCRSSKSLLHSNGNTYLYWFLQRPGQSPQLLIYRMSNLASGVPDRFSGSGSGTAFTLRISRVEAEDVGVYYCMQHLEYPFTFGGGTKLEIKRADAAPTVSIFPPSSEQLTSGGASVVCFLNNFYPKDINVKWKIDGSERQNGVLNSWTDQDSKDSTYSMSSTLTLTKDEYERHNSYTCEATHKTSTSPIVKSFNRNEC |  |  |  |  |  |  |  |  |  |  |  |  |  |  |  |  |  |  |  | binding result [4]: binds; binding result [5]: no binding |
| 7-B16 chimera (human IgG1) (antibody, also called 7-B16.hG1 Chimera; Wild type 7-B16) heavy: not shown light: DIVMTQAEPSVPVTPGESISISCRSSKSLLHSNGNTYLYWFLQRPGQSPQLLIYRMSNLASGVPDRFSGSGSGTAFTLRISRVEAEDVGVYYCMQHLEYPFTFGGGTKLEIKRTVAAPSVFIFPPSDEQLKSGTASVVCLLNNFYPREAKVQWKVDNALQSGNSQESVTEQDSKDSTYSLSSTLTLSKADYEKHKVYACEVTHQGLSSPVTKSFNRGEC |  |  |  | 0.437 | no binding | 148% | 14% | 18% | 0.655 | 0.00134 s⁻¹ | 175% | 1.04 | 0.22 nM | 6.08e+06 M⁻¹ s⁻¹ | 0.00691 µg/mL | 0.771 | 41% | 0.101 | 0.09 µg/mL | ADCC (Fold Induction) [19]: 23.3 fold; Flow (fold over parent) [21]: 10 fold |
| 7B16-L1.001 (CDR L1 swapped mutant of 7-B16) (antibody, V domains shown, also called CDR swapped variant L1) VH: EVQLVESGGGLVQPKGSLKLSCAASGFTFNTYAMNWVRQAPGKGLEWVARIRSKSNNYATYYADSVKDRFTISRDDSQSMLYLQMNNLKTEDTAMYYCVRGLLRYRFFDVWGAGTTVTVSS VL: DIVMTQAEPSVPVTPGESISISCRSSQSLLHSNGYNYLDWFLQRPGQSPQLLIYRMSNLASGVPDRFSGSGSGTAFTLRISRVEAEDVGVYYCMQHLEYPFTFGGGTKLEIKR | 0.0039 nm | no binding (tested: 300 nM CCR8-NT.MBP) | no binding |  |  |  |  |  |  |  |  |  |  |  |  |  |  |  |  |  |
| 1-K17 chimera (human IgG1) (antibody, also called 1-K17.hG1 Chimera) heavy: not shown light: DVVMTQTPLSLPVSLGDQASISCRSSQSLVHSNGNTYLYWYLQKPGQSPKLLIYKVSNRFSGVPDRFSGSGSGTDFTLKISRVEAEDLGVYFCSQSTHVPYTFGGGTKLEIKRTVAAPSVFIFPPSDEQLKSGTASVVCLLNNFYPREAKVQWKVDNALQSGNSQESVTEQDSKDSTYSLSSTLTLSKADYEKHKVYACEVTHQGLSSPVTKSFNRGEC |  |  |  | 0.268 | no binding | 28% | 12% | 11% | 0.047 | 0.000144 s⁻¹ | 102% | 0.651 | 0.018 nM | 7.81e+06 M⁻¹ s⁻¹ | 0.00618 µg/mL | 0.124 | 14% | 0.036 | 0.071 µg/mL |  |
